In the MegaScale stability set (Tsuboyama et al. 2023):

B1: EHEE_rd4_0086 (parent)
chain: EIHIRTNGEEQARKVYKMLAKRNYDVKIEQHNGQWVVTAS

Variants of: B1
Test: folding stability dG (cDNA display proteolysis); higher = more stable
Settings: PBS, room temperature

Folding stability dG [kcal/mol], by site and new letter:
Y16: E 0.776; N -0.095; W 1.38; K 1.07; I 0.973; H 1.03; T 0.377; S 1.5; G 1.88; A 2.76; M 2.15; R 1.15; L 1.55; Q 1.38; F 1.93; V 1.23
N7: R 2.06; I 1.69; F 2.03; K 1.77; V 1.66; P 1.32; A 1.95; S 1.95; T 1.99; Q 1.85; L 1.81; G 1.5; M 1.69; H 1.73; D 1.82; Y 1.99; W 2.08; E 1.69
E10: G 1.64; H 1.58; K 2.15; N 1.72; Q 1.81; M 1.89; W 2.06; S 1.93; V 1.81; L 1.98; Y 1.81; I 1.84; T 1.78; F 1.73; P 1.37; D 1.74; A 2.22; R 2.17
R13: I 1.67; Q 1.47; N 1.36; V 1.27; A 1.03; L 1.89; K 1.92; H 1.32; F 1.5; W 2.33; Y 1.85; M 1.79; C 2.74; T 1.18; G 0.376; D 0.502; S 0.759; E 1.04
E9: V 1.76; G 0.745; L 2.44; T 0.873; M 1.75; H 1.55; S 1.14; W 2.41; D 0.638; K 1.69; F 2.33; R 1.77; N 0.702; P 1.92; Q 1.52; A 1.53; Y 2.52; I 2.26
Q11: N 1.35; K 1.4; D 1.67; Y 2; H 1.96; E 2.1; R 1.51; I 1.84; P 0.372; L 1.89; T 1.59; V 1.61; M 1.95; S 1.55; F 2.05; A 1.89; G 1.02; W 2.1
M18: E 1.67; T 1.12; A 1.84; Q 1.5; S 1.35; F 2.25; H 1.54; D 1.08; K 1.37; L 1.82; N 1.14; Y 2.37; R 1.25; G 0.727; V 1.48; I 1.81; W 2.61
L19: A -0.32; Y 1.35; V -0.352; H -0.775; F 1.72; I 0.108; M 1.27; W 1.02
K14: Q 1.8; R 2.12; H 1.53; S 1.34; L 1.91; Y 2.02; M 1.87; T 1.32; V 1.42; F 1.89; E 1.68; D 1.21; A 1.86; W 2.35; N 1.29; G 0.786; I 1.82
G8: Y 2.22; M 1.88; K 2.1; S 3.25; V 2.06; T 2.86; A 1.79; I 2.21; P 0.221; N 2.94; L 2.05; E 2.06; D 2.96; Q 1.94; W 2.02; F 2.22; H 2.21; R 2.17
T6: E 0.299; S 1.16; M 1.91; Y 1.89; K 0.706; H 0.847; W 0.843; D -0.07; A 1.73; N 0.438; G 0.494; I 2.02; F 3.03; Q 0.309; R 0.963; L 2.35; P 0.496; V 2.55
A20: D 0.486; W 1.46; I 2.17; V 2.18; S 1.78; M 2.21; N 0.982; E 1.52; T 1.75; K 2.43; L 2.51; Q 2.16; G 0.826; Y 1.55; R 2.14; F 1.58; H 1.36
V15: N -0.279; I 2.49; L 2.35; M 1.62; S -0.033; H 0.525; D -0.861; E -0.159; W 2.43; C 2.6; R 0.424; F 1.93; Q 0.153; A 1.12; K 0.551; Y 1.97; T 0.624
K21: T 1.67; S 2.09; W 1.61; Y 1.61; Q 2.1; V 1.63; L 2.06; I 1.82; R 1.95; D 2.13; E 2; M 2.15; P -0.238; A 2.4; F 1.7; G 1.82; N 1.77; H 1.69; C 2.71
A12: C 2.51; L 0.213; F -0.019; Y -0.25; Q -0.947; W 0.477; G 0.134; T 0.108; K -0.265; M 0.486; S 0.335; R -0.218; V -0.114; I 0.115
Y24: R 1.3; A 1.08; H 1.18; G 0.656; T 0.886; D 0.514; Q 0.902; P 0.856; F 1.93; L 1.69; W 2; E 0.458; I 1.42; V 1.29; K 1.25; S 0.914; M 1.71; N 0.737
D25: F 2.14; G 1.22; H 2.15; A 1.96; E 1.91
N23: S 1.55; M 1.89; V 0.904; A 1.69; T 0.87; L 1.74; G 3.46; K 1.68; I 0.912; D 1.33; C 2.9; Q 1.67; H 2.35; W 2.36; F 2.79; E 1.12; R 1.68; P 0.533; Y 2.86
K17: W 2.11; V 1.91; H 1.83; G 1.33; T 1.91; E 2.37; F 1.86; A 2.25; Y 1.99; N 2.07; R 2.02; Q 2.1; C 3.19; P -0.583; D 2.06; L 2.08; I 2.03; M 2.15; S 1.77
R22: P -0.563; T 1.16; N 1.45; Y 2.05; H 1.86; G 1.16; V 1.01; S 1.37; E 1.29; W 2.29; I 1.31; L 2.45; M 2.32; Q 1.76; F 2.04; K 1.85; D 1.08; A 1.84
R5: V 2.32; T 1.97; W 2.43; Y 2.52
